Data as given in paper PMC6479881, “Structural Comparison of Enterococcus faecalis and Human Thymidylate Synthase Complexes with the Substrate dUMP and Its Analogue FdUMP Provides Hints about Enzyme Conformational Variabilities” (Molecules, 2019).

Experiments:
[1] = target: the molecule itself; assay: crystal structure; EfTS 7 mg/mL in 25 mM phosphate buffer pH 6.8, 2 mM DTT, with 100 mM dUMP or 4 mM FdUMP; precipitant 2.2-2.5 M ammonium sulfate, 0.1 M HEPES pH 7.5; room temperature; space group P21, two enzyme dimers in the ASU
[2] = target: the molecule itself; assay: crystal structure; hTS 20 mg/mL in 50 mM HEPES pH 7.5, 30 mM NaCl, 20 mM beta-mercaptoethanol, with 40 mM dUMP or 2 mM FdUMP; precipitant 27-30 % PEG4000, 30 mM ammonium sulfate, 0.1 M TRIS pH 9; room temperature; space groups C2 or I2, one and half dimer in the ASU

Row | Protein | binding result [1] | binding result [2]
1 | Enterococcus faecalis thymidylate synthase (enzyme, dUMP complex: Cys197 as S,S-(2-hydroxylethyl)thiocysteine (CME197) in subunits B and D, oxidized to sulfenic acid (S-oxycysteine, CSX197) in subunits A and C; FdUMP complex: Cys197 thiol reactive, Thymidylate synthase (EC 2.1.1.45) of Enterococcus faecalis; The homodimer is asymmetric: 5-FTHF copurifies in one active site of each dimer; also called EfTS; TS; source: prepared according to an established procedure [5]; purified) MEEAYLALGKKILEEGHFKEDRTGTGTYSLFGYQMRFDLAKGFPLLTTKRVPFGLIKSELLWFLKGDTNIRYLLERNNHIWDEWAFERYVKSADYQGPDMTDFGHRVLQDPAFAEQYKEEHQKFCDAILNDAEFAEKYGELGNIYGAQWRHWETKDGSFIDQLANVIEMIKTNPDSRRLIVSAWNPEDVPSMALPPCHTMFQFYVNEGKLSCQLYQRSADVFLGVPFNIASYALLTHLIAHETGLEVGEFVHTLGDAHLYQNHVEQMQEQLSREVRSFPTLVLNPDKASVFDFDMEDIKVEGYDPHPTIKAPIAV | binds | –
2 | human thymidylate synthase (enzyme, Thymidylate synthase (EC 2.1.1.45), human, wild type; expressed from pQE-80L with a not-cleavable N-terminal His6-tag (twelve tag residues); the first twenty-five N-terminal residues and the tag were not traced in the structures; also called hTS; Human TS; source: E. coli BL21(DE3), purified (HisTrap HP); not shown: His6, N-terminal, kept) MPVAGSELPRRPLPPAAQERDAEPRPPHGELQYLGQIQHILRCGVRKDDRTGTGTLSVFGMQARYSLRDEFPLLTTKRVFWKGVLEELLWFIKGSTNAKELSSKGVKIWDANGSRDFLDSLGFSTREEGDLGPVYGFQWRHFGAEYRDMESDYSGQGVDQLQRVIDTIKTNPDDRRIIMCAWNPRDLPLMALPPCHALCQFYVVNSELSCQLYQRSGDMGLGVPFNIASYALLTYMIAHITGLKPGDFIHTLGDAHIYLNHIEPLKIQLQREPRPFPKLRILRKVEKIDDFKAEDFQIEGYNPHPTIKMEMAV | – | binds
